Results reported in article PMC5483951.

Target: hnRNP F/H (human (endogenous in 293))
Assay: co-IP; extracts of 293 cells expressing FLAG-SRSF10, RS1-FLAG, RS2-FLAG or RS1-ΔΔ-FLAG, lysed in NET-2 buffer (50 mM Tris-HCl pH 7.4, 150 mM NaCl, 0.05% NP-40), treated with RNase A; anti-hnRNP F, H or K antibodies on protein G magnetic beads, overnight at 4°C; blot with anti-FLAG; cells treated or not with oxaliplatin

Chain of FLAG-SRSF10 (O75494 whole entry): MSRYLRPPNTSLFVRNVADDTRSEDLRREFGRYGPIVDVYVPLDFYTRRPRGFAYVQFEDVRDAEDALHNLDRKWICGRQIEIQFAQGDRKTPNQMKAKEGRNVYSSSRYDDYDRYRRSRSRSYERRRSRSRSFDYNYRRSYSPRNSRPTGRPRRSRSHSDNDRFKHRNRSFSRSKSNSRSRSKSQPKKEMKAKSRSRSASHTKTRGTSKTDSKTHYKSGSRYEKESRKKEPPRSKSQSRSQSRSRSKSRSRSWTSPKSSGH

percent of total SRSF10 associated: 0.5 to 1%
Substance: FLAG-SRSF10 (from UniProt O75494 1-262) (natural protein)
